Test results from article PMC8556680.

T1: GST-ZNF410 ZF1-ZF5 (Homo sapiens, UniProt Q86VK4 217-366)
T1 sequence: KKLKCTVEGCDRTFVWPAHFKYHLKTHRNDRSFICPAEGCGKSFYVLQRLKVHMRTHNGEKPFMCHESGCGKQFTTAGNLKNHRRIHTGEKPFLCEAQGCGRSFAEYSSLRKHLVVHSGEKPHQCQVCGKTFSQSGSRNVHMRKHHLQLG


How the values were obtained:
GST-ZNF410 ZF1-ZF5 [1] = molecular target: T1, GST-ZNF410 ZF1-ZF5; assay: fluorescence polarization
GST-ZNF410 ZF1-ZF5 [2] = molecular target: T1, GST-ZNF410 ZF1-ZF5; assay: fluorescence polarization; remark: listed apart in the source

Binder	binding result (GST-ZNF410 ZF1-ZF5 [1])	Kd (GST-ZNF410 ZF1-ZF5 [2]) [nM]
negative control oligo (FAM) (dsDNA) DNA 1: TCCACTGCCAGGACCTTT DNA 2: AAAAGGTCCTGGCAGTGG	no binding	–
17-bp consensus oligo (FAM) (dsDNA) DNA 1: CACATCCCATAATAATG DNA 2: CATTATTATGGGATGTG	–	22
